From CN115703833A (BOAOXIN BIOTECHNOLOGY NANJING CO LTD, dated 2023) come the findings set out here.

Assay [1] has as its target T1, 重组人CD47-his蛋白 (ACRO biosystems, cat#CD7-H5227, MW 15.6 kDa) (human, UniProt Q08722 19-139, biotin-labelled in the ELISAs (position not given); unlabelled in Biacore).
T1 construct: also called 人CD47蛋白; 人CD47-生物素; not shown: his tag
The assay can be described thus: Biacore T200 SPR; antibody captured by goat anti-mouse IgG on a CM5 chip, CD47-his as analyte. Background: In SPR one partner is held on a chip, and binding of the other changes the refractive index at the surface.

Assay [2] addresses T2, 人CD47 (表面过表达人CD47的293F细胞) (human, UniProt Q08722 19-323).
T2 construct: whole, on cells; also called 表面过表达人CD47的稳定细胞系293F
The assay can be described thus: flow cytometry on 293F cells overexpressing human CD47.

T1 sequence (Q08722 19-139 limits assumed): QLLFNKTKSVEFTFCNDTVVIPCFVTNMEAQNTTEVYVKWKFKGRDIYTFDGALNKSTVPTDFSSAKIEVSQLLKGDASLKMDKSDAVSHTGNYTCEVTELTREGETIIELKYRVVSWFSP
T2 sequence (Q08722 19-323): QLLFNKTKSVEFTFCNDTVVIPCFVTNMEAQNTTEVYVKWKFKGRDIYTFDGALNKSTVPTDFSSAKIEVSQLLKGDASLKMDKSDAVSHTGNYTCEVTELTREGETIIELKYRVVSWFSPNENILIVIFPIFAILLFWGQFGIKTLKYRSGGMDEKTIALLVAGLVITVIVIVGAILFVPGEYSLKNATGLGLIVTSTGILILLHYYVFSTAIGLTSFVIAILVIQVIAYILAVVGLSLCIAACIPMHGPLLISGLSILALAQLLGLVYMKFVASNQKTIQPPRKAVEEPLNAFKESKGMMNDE

B1: 本发明的单克隆抗体1D5 (小鼠抗CD47单克隆抗体) (antibody, V domains shown)
VH: EVQLQQSGAELVRSGASVKLSCTASGFNIKDYYMSWVRQRPEQGLEWIGWIDPKNGDTAYDPKFQGKATMTADTSSNTAYLQFSSLTSEDTADYYCNAGGRGGFAYWGQGTLVTVSA
VL: DVLMTQTPLSLPVSLGDQASISCRSNQSIVHSNGYTYLEWYLQKPGQSPKLLIYKVSNRFSGVPDRFSGSGSGTDFTLRISRVEAEDLGVYYCFQGSHVPRTFGGGTKLEIK
notes: Tested as a purified mouse monoclonal antibody from a hybridoma
With B1, the binding result in assay [1] and in assay [2] was “binds” throughout.
